Earlier results on 1 molecule are cited in publication PMC6615252, “The binding affinity of PTPN13’s tandem PDZ2/3 domain is allosterically modulated” (BMC Molecular and Cell Biology, 2019).

This series relates to PDZ4 domain of PTPN13. The conditions noted are these: ref [39]; cited from earlier work. The source says:
This might also explain as to why the observed in vitro affinities of PTPN13 for APC and PRK2 are low in comparison to known examples for PDZ-ligand interactions.

B1: PARG1: RhoGAP protein PARG1 (protein, UniProt Q52LW3 1-1261, looked up)
Rho GTPase-activating protein …: MIAHKQKKTKKKRAWASGQLSTDITTSEMGLKSLSSNSIFDPDYIKELVNDIRKFSHMLLYLKEAIFSDCFKEVIHIRLEELLRVLKSIMNKHQNLNSVDLQNAAEMLTAKVKAVNFTEVNEENKNDLFQEVFSSIETLAFTFGNILTNFLMGDVGNDSLLRLPVSRETKSFENVSVESVDSSSEKGNFSPLELDNVLLKNTDSIELALSYAKTWSKYTKNIVSWVEKKLNLELESTRNMVKLAEATRTNIGIQEFMPLQSLFTNALLNDIESSHLLQQTIAALQANKFVQPLLGRKNEMEKQRKEIKELWKQEQNKMLEAENALKKAKLLCMQRQDEYEKAKSSMFRAEEEHLSSSGGLAKNLNKQLEKKRRLEEEALQKVEEANELYKVCVTNVEERRNDLENTKREILAQLRTLVFQCDLTLKAVTVNLFHMQHLQAASLADSLQSLCDSAKLYDPGQEYSEFVKATNSTEEEKVDGNVNKHLNSSQPSGFGPANSLEDVVRLPDSSNKIEEDRCSNSADITGPSFIRSWTFGMFSDSESTGGSSESRSLDSESISPGDFHRKLPRTPSSGTMSSADDLDEREPPSPSETGPNSLGTFKKTLMSKAALTHKFRKLRSPTKCRDCEGIVVFQGVECEECLLVCHRKCLENLVIICGHQKLPGKIHLFGAEFTQVAKKEPDGIPFILKICASEIENRALCLQGIYRVCGNKIKTEKLCQALENGMHLVDISEFSSHDICDVLKLYLRQLPEPFILFRLYKEFIDLAKEIQHVNEEQETKKNSLEDKKWPNMCIEINRILLKSKDLLRQLPASNFNSLHFLIVHLKRVVDHAEENKMNSKNLGVIFGPSLIRPRPTTAPITISSLAEYSNQARLVEFLITYSQKIFDGSLQPQDVMCSIGVVDQGCFPKPLLSPEERDIERSMKSLFFSSKEDIHTSESESKIFERATSFEESERKQNALGKCDACLSDKAQLLLDQEAESASQKIEDGKTPKPLSLKSDRSTNNVERHTPRTKIRPVSLPVDRLLLASPPNERNGRNMGNVNLDKFCKNPAFEGVNRKDAATTVCSKFNGFDQQTLQKIQDKQYEQNSLTAKTTMIMPSALQEKGVTTSLQISGDHSINATQPSKPYAEPVRSVREASERRSSDSYPLAPVRAPRTLQPQHWTTFYKPHAPIISIRGNEEKPASPSAAVPPGTDHDPHGLVVKSMPDPDKASACPGQATGQPKEDSEELGLPDVNPMCQRPRLKRMQQFEDLEGEIPQFV
On to B1, for which the “binding to PDZ4 domain” value was “binds”.
